Laboratory results as given in US8147844 (Genentech, dated 2012).
Values joined by “and” are separate entries in the source; they are usually repeats but may differ in a detail not shown here. Equal values may be shown once. One block for each binder: values may come before it.

How the values were obtained:
[1] = biological target: T1, mpl-IgG (chimeric molecule comprising the entire extracellular domain of human mpl, amino acids 1-491, and … (human, UniProt P40238 26-491)); assay: mpl receptor based ELISA (captured mpl-IgG)
T1 construct: range 1-491; Expressed in 293 cells; no cleavage site is stated; Used immobilized on Ultralink or NHS-superose, captured on ELISA plates, or soluble; also called soluble mpl-IgG; soluble human mpl-IgG; not shown: Fc region of a human IgG1 molecule
T1 sequence (looked up): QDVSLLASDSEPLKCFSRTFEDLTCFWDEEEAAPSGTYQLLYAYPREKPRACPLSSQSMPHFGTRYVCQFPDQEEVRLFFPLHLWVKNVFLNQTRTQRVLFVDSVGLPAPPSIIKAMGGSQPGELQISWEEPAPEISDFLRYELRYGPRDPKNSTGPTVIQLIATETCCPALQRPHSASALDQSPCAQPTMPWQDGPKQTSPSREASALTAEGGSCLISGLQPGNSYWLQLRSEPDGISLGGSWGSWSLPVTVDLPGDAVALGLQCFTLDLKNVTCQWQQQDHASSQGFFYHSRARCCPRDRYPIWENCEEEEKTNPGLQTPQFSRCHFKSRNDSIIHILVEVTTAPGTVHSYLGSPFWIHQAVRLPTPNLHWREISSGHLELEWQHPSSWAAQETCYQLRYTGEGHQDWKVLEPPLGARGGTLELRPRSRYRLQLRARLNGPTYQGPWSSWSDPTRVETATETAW

[2] = biological target: T1, mpl-IgG (chimeric molecule comprising …); assay: mpl receptor-based ELISA: mpl-IgG captured on an anti-human IgG (Fc) plate, bound TPO detected with biotinylated rabbit antibodies to TPO155

B1: TPO (1-155) with authentic N-terminus, generated by thrombin cleavage of T-H8MLF (ligand)
chain: SPAPPACDLRVLSKLLRDSHVLHSRLSQCPEVHPLPTPVLLPAVDFSLGEWKTQMEETKAQDILGAVTLLLEGVMAARGQLGPTCLSSLLGQLSGQVRLLLGALQSLLGTQLPPQGRTTAHKDPNAIFLSFQHLLRGKVRFLMLVGGSTLCVRRA
notes: Only very minor (<5%) internal cleavage occurred; also called cleaved variant (3)
EC50 [1]: 0.002 µg/mL to 0.004 µg/mL (2×) and 0.12 nM and 0.24 nM

EC50 [2]: 0.0019 µg/mL and 0.12 nM
B2: TPO (Met^-1 1-153), refolded, produced in E. coli (ligand)
chain: MSPAPPACDLRVLSKLLRDSHVLHSRLSQCPEVHPLPTPVLLPAVDFSLGEWKTQMEETKAQDILGAVTLLLEGVMAARGQLGPTCLSSLLGQLSGQVRLLLGALQSLLGTQLPPQGRTTAHKDPNAIFLSFQHLLRGKVRFLMLVGGSTLCVR
modifications: non-glycosylated; disulfides between cysteines 1-4 and 2-3
notes: Encoded by plasmid pMP210-1
